From publication PMC7948469 come the findings set out here.

In test [1] the target is plasminogen-binding group A streptococcal M-protein (Streptococcus pyogenes (GAS isolate AP53)). As to the kind of experiment: SPR; PAM amine-coupled on a CM-5 chip (up to 250 RU); Pg flowed at 0-50 nM (hPg[D219N] up to 300 nM); 25 °C; HBS-EP+ (10 mM Na-Hepes/150 mM NaCl/3 mM EDTA/0.05% polysorbate 20, pH 7.4); 1:1 Langmuir fit; KD from koff/kon. (SPR reads the build-up and loss of mass on a sensor chip optically.)
Chain of plasminogen-binding group A streptococcal M-protein (Streptococcus pyogenes (GAS isolate AP53)) (P49054 30-380 limits assumed): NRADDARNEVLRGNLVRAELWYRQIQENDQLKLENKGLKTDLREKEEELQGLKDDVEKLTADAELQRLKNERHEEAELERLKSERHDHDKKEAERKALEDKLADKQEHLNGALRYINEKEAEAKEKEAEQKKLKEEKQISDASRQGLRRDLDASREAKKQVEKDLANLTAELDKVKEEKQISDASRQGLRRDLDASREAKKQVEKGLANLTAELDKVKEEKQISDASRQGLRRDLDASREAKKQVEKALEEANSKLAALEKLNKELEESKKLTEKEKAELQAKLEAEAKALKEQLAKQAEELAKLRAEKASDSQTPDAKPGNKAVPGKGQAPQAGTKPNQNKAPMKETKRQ

Test [2] addresses hHC-mLC (human heavy chain-mouse light chain) chimeric plasminogen (human | mouse) (UniProt P00747). Nature of the test: SPR; each Pg amine-coupled on a CM-5 chip (~1200 RU); SK1 flowed at 0-0.25 uM, SK2b at 0-2 uM; 25 °C; HBS-EP+ with 50 uM p-nitrophenyl-p'-guanidinobenzoate; 1:1 Langmuir fit; KD from koff/kon.
Test [3] addresses hPg[D219N] (human Pg with a [D219N] mutation) (human). The description is as above.
Test [4] addresses human plasminogen (human). The test is described as above.
For test [5], the target named is mHC-hLC (mouse heavy chain-human light chain) chimeric plasminogen (mouse | human) (UniProt P00747). The description is as above.
For test [6], the target named is mouse plasminogen (mouse). The test is described as above.
Test [7] concerns the target hPg[D219N] (human Pg with a [D219N] mutation) (human).
Test [8] deals with human plasminogen (human).
Test [9] deals with mHC-hLC (mouse heavy chain-human light chain) chimeric plasminogen (mouse | human) (UniProt P00747).

pKd: −log10 of the molar value.

In test [1], “hHC-mLC (human heavy chain-mouse light chain) chimeric plasminogen (from UniProt P00747 20-580)” gave a pKd of 8.52, a koff of 0.0012 s⁻¹ and a kon of 390000 M⁻¹ s⁻¹.

Take mouse plasminogen (natural protein): in test [1], the pKd was 7.85, the koff turned out to be 0.0033 s⁻¹ and the kon came out at 260000 M⁻¹ s⁻¹.

As to streptokinase SK1 (natural protein), the pKd in [2] is 8.72; in test [3], 9.40; in [4] it was 9.05; in [5] it was 9.00; in test [6], 8.21. Also, the koff in test [2] turned out to be 0.0059 s⁻¹; in [3], 0.0005 s⁻¹; in [4] it was 0.0015 s⁻¹; in test [5], 0.0016 s⁻¹; in test [6], 0.0102 s⁻¹. Further, the kon turned out to be 3.03e+06 M⁻¹ s⁻¹ in [2]; 1.48e+06 M⁻¹ s⁻¹ in [3]; 1.65e+06 M⁻¹ s⁻¹ in [4]; 1.57e+06 M⁻¹ s⁻¹ in test [5]; 1.65e+06 M⁻¹ s⁻¹ in [6].

As for human plasminogen (natural protein), in [1], the pKd is 8.66, the koff amounted to 0.0006 s⁻¹ and the kon was 270000 M⁻¹ s⁻¹.

With streptokinase SK2b (natural protein), the % active site formation in the SK2b-Pg complex (MUGB cleavage), with saturating PAM (5 uM) was 86% in test [7], 78% in test [8] and 33% in [9]. The % active site formation in the SK2b-Pg complex (MUGB cleavage), without PAM in test [7] amounted to 66%; in [8], 19%; in test [9] it was 18%. For the same substance, the pKd is 6.73 in test [2]; 7.14 in test [3]; 7.07 in [4]; 6.69 in test [5]; 6.62 in test [6]. The koff in test [2] worked out at 0.0014 s⁻¹; in [3] it was 0.0012 s⁻¹; in [4], 0.0015 s⁻¹; in test [5] it was 0.0016 s⁻¹; in [6], 0.0016 s⁻¹. The kon stood at 8000 M⁻¹ s⁻¹ in test [2]; 17000 M⁻¹ s⁻¹ in test [3]; 18000 M⁻¹ s⁻¹ in test [4]; 8000 M⁻¹ s⁻¹ in test [5]; 6000 M⁻¹ s⁻¹ in test [6].

On to “mHC-hLC (mouse heavy chain-human light chain) chimeric plasminogen (from UniProt P00747 581-810)”, for which, in test [1], the pKd was 7.80, the off-rate (koff) worked out at 0.0038 s⁻¹ and the association rate constant (kon) amounted to 240000 M⁻¹ s⁻¹.

Usually pKd stands for the negative decadic logarithm of the Kd, by convention in mol/L. Low readings indicate a large Kd, high ones a small Kd. The koff is the first-order rate constant of dissociation. As usually defined, the kon is a measure of how fast the partners come together. Higher therefore signals faster complex formation.
